Patent US20180258158A1 (Bristol-Myers Squibb, published 2018)
Numbering of substitutions follows the chain as printed. Names and notes keep the numbering of the source.

B1: ADX_6727_A07 (Y44S/K85T) (designed binder)
chain: MGVSDVPRDLEVVAATPTSLLISWDAPAVTVRYYRITYGREVQKYSDLGPLYISQEFTVPGSKSTATISGLKPGVDYTITVYAVTGSGESPASSTPISINYRTEIDKPSQHHHHHH
notes: Full His6-tagged entry
B2: ADX_6727_F10 (Y35A/K85T) (designed binder)
chain: B1 chain with Y45A, S54Y
notes: Full His6-tagged entry
B3: ADX_6727_F07 (Y44S/K85A) (designed binder)
chain: B1 chain with T95A
notes: Full His6-tagged entry
B4: ADX_6727_F06 (L41A/K85T) (designed binder)
chain: B1 chain with L51A, S54Y
notes: Full His6-tagged entry
B5: ADX_6727_B11 (Q33D/K85S) (designed binder)
chain: B1 chain with Q43D, S54Y, T95S
notes: Full His6-tagged entry
B6: ADX_6727_C03 (Y35S) (designed binder)
chain: B1 chain with Y45S, S54Y, T95K
notes: Full His6-tagged entry
B7: ADX_6727_D10 (Q33D/K85T) (designed binder)
chain: B1 chain with Q43D, S54Y
notes: Full His6-tagged entry
B8: ADX_6727_D06 (Y44A/K85S) (designed binder)
chain: B1 chain with S54A, T95S
notes: Full His6-tagged entry
B9: ADX_6727_F04 (Y44A/K85A) (designed binder)
chain: B1 chain with S54A, T95A
notes: Full His6-tagged entry
B10: ADX_6727_C07 (R30A/K85S) (designed binder)
chain: B1 chain with R40A, S54Y, T95S
notes: Full His6-tagged entry
B11: ADX_6727_B05 (I43S/K85T) (designed binder)
chain: B1 chain with I53S, S54Y
notes: Full His6-tagged entry
B12: ADX_6727_D02 (R30N) (designed binder)
chain: B1 chain with R40N, S54Y, T95K
notes: Full His6-tagged entry
B13: ADX_6727_F03 (I43Y as printed in Table 4; I43A in Table 7) (designed binder)
chain: B1 chain with I53A, S54Y, T95K
notes: Full His6-tagged entry
B14: ADX_6727_B01 (K85S) (designed binder)
chain: B1 chain with S54Y, T95S
notes: Full His6-tagged entry
B15: ADX_6727_D01 (K85T) (designed binder)
chain: B1 chain with S54Y
notes: Full His6-tagged entry
B16: ADX_6727_H02 (I43S) (designed binder)
chain: B1 chain with I53S, S54Y, T95K
notes: Full His6-tagged entry
B17: ADX_6727_G05 (I43S/K85A) (designed binder)
chain: B1 chain with I53S, S54Y, T95A
notes: Full His6-tagged entry
B18: ADX_6727_C01 (K85A) (designed binder)
chain: B1 chain with S54Y, T95A
notes: Full His6-tagged entry
B19: ADX_6727_G01 (L41A) (designed binder)
chain: B1 chain with L51A, S54Y, T95K
notes: Full His6-tagged entry

What follows are binders tested against T1, human serum albumin (HSA), full length (human, UniProt P02768 25-609) (assay: SPR, immobilized HSA, 500 nM Adnectin, 25 C).
T1 construct: mature; Immobilized on CM5 chip (SPR) or coated on plates (ELISA)
Procedure: (§1) Measurements were conducted by SPR and ELISA. SPR was conducted as follows. Full length HSA or mouse albumin was immobilized on a Biacore T series CM5 chip at 15 ug/mL in 10 mM acetate buffer (pH 5.0) buffer using standard NHS/EDC coupling, to a surface density of approximately 1000-1100 RU. For off-rate measurements at 25° C., PKE Adnectins were applied as analytes at 500 nM in HBS-P+(0.01 M HEPES pH 7.4, 0.15 M NaCl, 0.005% v/v Surfactant P20) running buffer at a flow rate of 20ul/min for 120 s over the immobilized albumins, followed by 800 s for dissociation. […] Regeneration of the chip surface between cycles was accomplished with two 30 second pulses of 10 mM Glycine, pH 2.0. Kinetic traces of reference-subtracted sensorgrams were fit to a 1:1 binding model for affinity using the Biaevaluation software. Only the dissociation phase was fit for determination of off-rates.

T1 sequence (P02768 25-609): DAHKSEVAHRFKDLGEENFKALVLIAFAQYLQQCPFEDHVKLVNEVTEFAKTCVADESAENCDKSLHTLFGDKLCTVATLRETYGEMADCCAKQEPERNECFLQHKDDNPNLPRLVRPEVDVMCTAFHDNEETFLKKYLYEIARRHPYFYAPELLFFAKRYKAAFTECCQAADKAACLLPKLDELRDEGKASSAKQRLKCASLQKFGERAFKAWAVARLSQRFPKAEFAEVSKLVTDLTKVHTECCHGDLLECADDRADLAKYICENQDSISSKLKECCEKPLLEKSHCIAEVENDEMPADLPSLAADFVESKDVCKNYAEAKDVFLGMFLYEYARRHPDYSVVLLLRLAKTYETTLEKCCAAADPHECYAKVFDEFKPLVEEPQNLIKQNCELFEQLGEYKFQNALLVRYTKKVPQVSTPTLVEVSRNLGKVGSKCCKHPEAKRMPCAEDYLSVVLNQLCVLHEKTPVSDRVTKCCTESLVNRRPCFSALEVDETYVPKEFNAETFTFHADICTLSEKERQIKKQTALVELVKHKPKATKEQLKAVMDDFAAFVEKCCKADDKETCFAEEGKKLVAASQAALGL

Binder | HSA Binding (RU)
B1 | 28
B2 | 22
B3 | 35

What follows are binders tested against T2, mouse serum albumin (MSA), full length (mouse, UniProt P07724 25-608) (assay: SPR off-rate, immobilized MSA, 500 nM Adnectin, 25 C).
T2 construct: mature; Immobilized on CM5 chip (SPR) or coated on plates (ELISA); also called mouse albumin; murine serum albumin
Procedure: as §1

Binder | koff [s⁻¹]
B1 | 0.00222
B2 | 0.00156
B3 | 0.00277

These binders were tested against T1, human serum albumin (HSA), full length (assay: SPR off-rate ratio to parent ADX_7016_A01, HSA, 25 C).
Procedure: as §1

Binder | HSA kd/Parent kd
B4 | 11
B5 | 56
B6 | 4
B7 | 50
B8 | 20
B9 | 23
B10 | 8
B11 | 28
B12 | 5
B13 | 17
B14 | 1.2
B15 | 1
B16 | 52
B17 | 53
B18 | 1.1
B19 | 14

Molecular target: T1, human serum albumin (HSA), full length
Assay: as above
Remark: another data set of the same source
Procedure: as §1

Binder | HSA kd/Parent kd
B1 | 4.8
B2 | 4
B3 | 6.5

Each binder was assayed against T2, mouse serum albumin (MSA), full length (assay: direct binding ELISA, coated MSA, anti-His-HRP).
Set-up: unit not given here
Procedure: (§2) Direct binding ELISA assays were conducted as follows. Full length human and murine serum albumin at 10ug/ml in PBS were coated on Nunc Maxisorp plates overnight at 4° C. Plates were blocked in casein/PBS buffer. PKE Adnectins were allowed to bind over a 4-point concentration range of 0.032-4 uM for HSA and 0.008-1 uM for MSA. Bound Adnectin was detected by anti-His antibody conjugated with HRP (horseradish peroxidase) diluted 1:1500 in casein/PBS. Plates were developed with TMB substrate and absorbance read at 450 nm. Adnectins were binned as high, medium and low affinity binders based on the observed Ymax of the concentration response curves.

Binder | MSA DB ELISA (OD450) Ymax obs | MSA DB ELISA (OD450) Ymin obs
B4 | 91 | 4
B5 | 11 | 1
B6 | 95 | 23
B7 | 42 | 1
B8 | 85 | 1
B9 | 77 | 2
B10 | 94 | 6
B11 | 63 | 2
B12 | 93 | 17
B13 | 67 | 2
B14 | 91 | 88
B15 | 91 | 88
B16 | 39 | 1
B17 | 32 | 1
B18 | 93 | 90
B19 | 87 | 3

The binders below were run against T1, human serum albumin (HSA), full length (assay: direct binding ELISA, coated HSA, anti-His-HRP).
Set-up: unit not given here
Procedure: as §2

Binder | HSA DB ELISA (OD450) Ymax obs | HSA DB ELISA (OD450) Ymin obs
B4 | 90 | 19
B5 | 12 | 1
B6 | 99 | 31
B7 | 19 | 2
B8 | 67 | 8
B9 | 56 | 6
B10 | 100 | 44
B11 | 60 | 4
B12 | 99 | 20
B13 | 89 | 9
B14 | 97 | 94
B15 | 97 | 88
B16 | 37 | 2
B17 | 38 | 2
B18 | 98 | 88
B19 | 79 | 12

The binders below were run against T2, mouse serum albumin (MSA), full length (assay: SPR, immobilized MSA, 500 nM Adnectin, 25 C).
Procedure: as §1

Binder | MSA Binding (RU)
B1 | 56
B2 | 55
B3 | 62

The binders below were run against T1, human serum albumin (HSA), full length (assay: SPR off-rate, immobilized HSA, 500 nM Adnectin, 25 C).
Procedure: as §1

Binder | koff [s⁻¹]
B1 | 0.00129
B2 | 0.00109
B3 | 0.00176

Molecular target: T1, human serum albumin (HSA), full length
Assay: as above
Remark: another data set of the same source
Procedure: as §1

Binder | koff [s⁻¹]
B4 | 0.00298
B5 | 0.0151
B6 | 0.00107
B7 | 0.0134
B8 | 0.00546
B9 | 0.00624
B10 | 0.00218
B11 | 0.00749
B12 | 0.00135
B13 | 0.00468
B14 | 0.000321
B15 | 0.000259
B16 | 0.0139
B17 | 0.0143
B18 | 0.000297
B19 | 0.0037

What follows are binders tested against T2, mouse serum albumin (MSA), full length (assay: SPR off-rate ratio to parent ADX_7016_A01, MSA, 25 C).
Procedure: as §1

Binder | MSA kd/Parent kd
B1 | 5.2
B2 | 3.6
B3 | 6.5

Molecular target: T2, mouse serum albumin (MSA), full length
Assay: as above
Remark: another data set of the same source
Procedure: as §1

Binder | MSA kd/Parent kd
B4 | 12.8
B6 | 2.8
B7 | 142
B8 | 14.5
B9 | 16.2
B10 | 7.8
B11 | 18.2
B12 | 2.8
B13 | 8.9
B14 | 1.2
B15 | 1
B16 | 22.8
B17 | 27
B18 | 1.2
B19 | 14.9

Molecular target: T2, mouse serum albumin (MSA), full length
Assay: SPR off-rate, immobilized MSA, 500 nM Adnectin, 25 C
Remark: another data set of the same source
Procedure: as §1

Binder | koff [s⁻¹]
B4 | 0.0055
B6 | 0.00121
B7 | 0.0608
B8 | 0.00622
B9 | 0.00694
B10 | 0.00334
B11 | 0.00781
B12 | 0.00118
B13 | 0.0038
B14 | 0.000501
B15 | 0.000433
B16 | 0.00977
B17 | 0.0116
B18 | 0.000509
B19 | 0.00639
